The values below come from article PMC2213607 (The Journal of Cell Biology, 2008).

The target in series [1] is His-tagged (6×) human Rab6A (human, UniProt P20340 1-208). Description: pull-down.
Series [2] deals with the molecule itself.

Where a chain is given by its changes, count along the chain named. In names and notes the source's numbering stands.

Chain of His-tagged (6×) human Rab6A (P20340 whole entry): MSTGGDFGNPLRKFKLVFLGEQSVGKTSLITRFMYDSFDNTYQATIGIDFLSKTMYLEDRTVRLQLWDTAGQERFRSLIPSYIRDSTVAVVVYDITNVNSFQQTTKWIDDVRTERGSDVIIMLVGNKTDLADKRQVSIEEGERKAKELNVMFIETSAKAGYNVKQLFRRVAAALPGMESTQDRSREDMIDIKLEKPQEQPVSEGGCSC

B1: GCC185 C-110 (fragment of the 110 C-terminal-most amino acids of GCC185) (domain or fragment, UniProt Q8IWJ2 1575-1684, looked up)
chain: LNGLLRETEATNAILMEQIKLLKSEIRRLERNQEREKSAANLEYLKNVLLQFIFLKPGSERERLLPVINTMLQLSPEEKGKLAAVAQGEEENASRSSGWASYLHSWSGLR
For the molecule B1, in series [1], the binding result was “binds”.

B2: GCC185 C-110 I1588A/L1595A (domain or fragment, UniProt Q8IWJ2 1575-1684, looked up)
chain: B1 chain with I14A, L21A
Consider B2, for which the “stoichiometry N” value in series [2] is 2.

The term stoichiometry N denotes a count of units in the complex or per binding partner.
